Source: PMC8795186, “Structural basis for safe and efficient energy conversion in a respiratory supercomplex” (Nature Communications, 2022)

B1: CtaF, subunit of the cyt aa3 oxidase (natural protein, Corynebacterium glutamicum, UniProt Q8NNK3 1-143, looked up)
chain: MKSSAKLMYGPTVFMAAMAVIYIFATMHVSDGGSVKGVEWVGSVALVLSAGLTLMLGVYLHFTEVRVDVLPEDWEEAEVADKAGTLGFFSPSSIWPAAMSGAVGFLAFGVVYFHYWMIAVGLMLLIFTITKLNLQYGVPKEKH
notes: CtaF, subunit of the cytochrome aa3 oxidase, Corynebacterium glutamicum; source: endogenous, purified from C. glutamicum membranes as part of the supercomplex (DDM, DEAE Sepharose, size exclusion)
B2: CtaE, subunit of the cyt aa3 oxidase (natural protein, Corynebacterium glutamicum, UniProt Q9AEL8 1-205, looked up)
chain: MTSAVGNTGMAAPQRVAALNRPNMVSVGTIVFLSQELMFFAGLFAMYFVSRANGLANGSWGEQTDHLNVPYALLITVILVSSSVTCQFGVFAAERGDVYGLRKWFLVTIILGSIFVIGQGYEYITLVGHGLTIQSSVYGSAFFITTGFHALHVIAGVMAFVVVLMRIHKSKFTPAQATAAMVVSYYWHFVDVVWIGLFITIYFIQ
notes: CtaE, subunit of the cytochrome aa3 oxidase, Corynebacterium glutamicum; source: endogenous, purified from C. glutamicum membranes as part of the supercomplex (DDM, DEAE Sepharose, size exclusion)
B3: QcrB, cytochrome b subunit of the cyt bcc complex (natural protein, Corynebacterium glutamicum, UniProt Q79VE9 1-539, looked up)
chain: MSLATVGNNLDSRYTMASGIRRQINKVFPTHWSFMLGEIALYSFIVLLLTGVYLTLFFDPSITKVIYDGGYLPLNGVEMSRAYATALDISFEVRGGLFIRQMHHWAALLFVVSMLVHMLRIFFTGAFRRPREANWIIGVVLIILGMAEGFMGYSLPDDLLSGVGLRIMSAIIVGLPIIGTWMHWLIFGGDFPSDLMLDRFYIAHVLIIPAILLGLIAAHLALVWYQKHTQFPGAGRTENNVIGIRIMPLFAVKAVAFGLIVFGFLALLAGVTTINAIWNLGPYNPSQVSAGSQPDVYMLWTDGAARVMPAWELYLGNYTIPAVFWVAVMLGILVVLLVTYPFIERKFTGDDAHHNLLQRPRDVPVRTSLGVMALVFYILLTVSGGNDVYAMQFHVSLNAMTWIGRIGLIVGPAIAYFITYRLCIGLQRSDREVLEHGIETGIIKQMPNGAFIEVHQPLGPVDDHGHPIPLPYAGAAVPKQMNQLGYAEVETRGGFFGPDPEDIRAKAKEIEHANHIEEANTLRALNEANIERDKNEGKN
notes: QcrB, cytochrome b subunit (haem bL, haem bH) of the cytochrome bcc complex, Corynebacterium glutamicum; has a 102 residue C-terminal extension; source: endogenous, purified from C. glutamicum membranes as part of the supercomplex (DDM, DEAE Sepharose, size exclusion)
B4: QcrA, Rieske-type iron-sulfur subunit of the cyt bcc complex (natural protein, Corynebacterium glutamicum, UniProt Q79VE8 1-408, looked up)
chain: MSNNNDKQYTTQELNAMSNEDLARLGTELDDVTIAYRKERFPIANDPAEKRAARAVTFWLVLGIIGGLGFLATYIFWPWEYKAHGDEGLLAYTLYTPMLGITSGLCILSLGFAVVLYVKKFIPEEIAVQRRHDGPSEEVDRRTIVALLNDSWQTSTLGRRKLIMGLAGGGAVLAGLTIIAPMGGMIKNPWNPKEGPMDVQGDGTLWTSGWTLVENDVKVYLGRDTAAIAESHTDATGEHWSTTGVSRLVRMRPEDLAAASMETVFPLPAEMVNDGAEYDPAKDVYEHQMHSVHGPRNAVMLIRLRTADAEKVIEREGQESFHYGDYYAYSKICTHIGCPTSLYEAQTNRILCPCHQSQFDALHYGKPVFGPAARALPQLPITVDEEGYLIAAGNFIEPLGPAFWERKS
notes: QcrA, Rieske-type iron-sulfur (2Fe-2S) subunit of the cytochrome bcc complex, Corynebacterium glutamicum; Carries the 2Fe-2S cluster (ligands His335, His355); QcrA crosses the dimer; also called QcrA´ (the copy of the second protomer); Rieske homologous subunit; source: endogenous, purified from C. glutamicum membranes as part of the supercomplex (DDM, DEAE Sepharose, size exclusion)

Legend:
[1] = target: T1, cyt bcc-aa3 (III2-IV2) supercomplex; QcrB sites (Corynebacterium glutamicum, UniProt Q79VE9); assay: cryo-EM structure; absorption spectroscopy; format: binding; conditions: co-purified endogenous pigment; narrow tunnel of QcrB near Qo site
T1 construct: native supercomplex purified from C. glutamicum membranes in DDM; dimer of 13-subunit protomers; with Cytochrome bc1 complex Rieske iron-sulfur subunit; Cytochrome bc1 complex cytochrome c subunit; Cytochrome c oxidase subunit 1; Cytochrome c oxidase subunit 2; Cytochrome c oxidase subunit 3; Cytochrome c oxidase polypeptide 4; Supercomplex subunit P29; Supercomplex subunit P20; Supercomplex subunit P12; Supercomplex subunit P8; Supercomplex subunit P6; ThiX
T1 sequence (Q79VE9 1-539): B3 chain

[2] = target: T2, cyt bcc-aa3 (III2-IV2) supercomplex; quinone sites of the cyt bcc complex (QcrB/QcrA) (Corynebacterium glutamicum, UniProt Q79VE8+Q79VE9); assay: cryo-EM structure, […] Å; format: binding; conditions: 20 µM stigmatellin, 2.5 mM azide also present; Qo site, transition-state analogue; QcrB and His355 of QcrA
T2 construct: native supercomplex purified from C. glutamicum membranes in DDM; dimer of 13-subunit protomers; with Cytochrome bc1 complex cytochrome c subunit; Cytochrome c oxidase subunit 1; Cytochrome c oxidase subunit 2; Cytochrome c oxidase subunit 3; Cytochrome c oxidase polypeptide 4; Supercomplex subunit P29; Supercomplex subunit P20; Supercomplex subunit P12; Supercomplex subunit P8; Supercomplex subunit P6; ThiX
T2 sequence (Q79VE9 1-539): B3 chain
T2 sequence (Q79VE8 1-408): B4 chain

[3] = target: B3; assay: cryo-EM structure; supercomplex purified from C. glutamicum membranes in DDM, 10 mg/ml; with 20 µM stigmatellin and 2.5 mM sodium azide (2.8 Å) and as isolated (3.1 Å); conditions: both partners purified
[4] = target: T3, CtaD, subunit of the cyt aa3 oxidase (haem a, haem a3, CuB) (Corynebacterium glutamicum, UniProt Q79VD7 1-584, His265 covalently bound to Tyr269); assay: as above; conditions: both partners purified
T3 construct: CtaD, catalytic subunit (haem a, haem a3, CuB) of the cytochrome aa3 oxidase, Corynebacterium glutamicum; source: endogenous, purified from C. glutamicum membranes as part of the supercomplex (DDM, DEAE Sepharose, size exclusion)
T3 sequence (looked up): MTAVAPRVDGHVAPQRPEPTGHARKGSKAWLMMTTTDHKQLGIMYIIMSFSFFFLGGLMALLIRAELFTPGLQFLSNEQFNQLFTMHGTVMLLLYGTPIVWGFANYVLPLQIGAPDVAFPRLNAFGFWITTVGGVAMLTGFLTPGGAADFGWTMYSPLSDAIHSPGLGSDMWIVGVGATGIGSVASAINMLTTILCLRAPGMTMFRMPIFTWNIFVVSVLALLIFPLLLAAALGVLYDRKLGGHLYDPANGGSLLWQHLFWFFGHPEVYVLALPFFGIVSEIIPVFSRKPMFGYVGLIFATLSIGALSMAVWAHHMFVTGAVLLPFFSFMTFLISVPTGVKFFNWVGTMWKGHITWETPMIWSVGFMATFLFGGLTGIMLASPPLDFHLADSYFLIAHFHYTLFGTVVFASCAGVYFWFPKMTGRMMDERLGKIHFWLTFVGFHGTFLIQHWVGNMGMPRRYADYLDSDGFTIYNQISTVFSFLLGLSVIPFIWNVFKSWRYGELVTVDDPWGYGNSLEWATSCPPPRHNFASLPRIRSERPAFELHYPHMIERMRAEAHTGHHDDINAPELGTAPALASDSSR

[5] = target: the molecule itself; assay: as above

Molecule: CC(C)=CCC/C(C)=C/C=C/C(C)=C/C=C/C(C)=C/C=C/C=C(C)/C=C/C=C(C)/C=C/C=C(\C)CCC=C(C)C [lycopene]
cryo-EM structure; absorption spectroscopy [1]: a lycopene molecule is resolved in a narrow tunnel of QcrB

Molecule: C/C=C(C)/C=C/C=C/[C@H](OC)[C@@H](C)[C@@H](OC)[C@@H](C)CCc1oc2c(O)c(OC)cc(OC)c2c(=O)c1C [stigmatellin]
cryo-EM structure, 2.8 Å [2]: The cryo-EM map clearly resolves stigmatellin bound between FeS and haem bL

Molecule: B1
binding result [3]: binds

Molecule: B2
binding result [3]: binds

Molecule: B3
binding result [4]: binds

Molecule: B4
binding result [5]: binds | binding result [3]: binds
